Test: yeast display, Sf9 membrane polyspecificity reagent, FACS + sequencing; frameworks hold sequencing errors
In short: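 In a synthetic yeast display library (Saccharomyces cerevisiae BJ5465), nanobody expression was induced with galactose for 36–48 hours. FACS gates were set low and high (top ~1%) using anti-HA fluorescence for expression and streptavidin fluorescence for binding of the Sf9 membrane reagent. Each polyreactivity label is drawn from the gate of origin.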

Sequence | polyreactivity (PSR sort gate)
QVQLVESWGGLVQAGGSLRLSCAASGRTSGNYAMGWYRQAPGKERELVAAIRYSGSSTFYADSVKGRFTISRDNAKNTVYLQMNSLKPEDTAVYYCARDIRRKGFRYDYWGQGTQVNVSS | high polyreactivity
QVQLVESGGALVQAGGSLRLSCAASGFIFDAYAMGWYRQAPGKERELVPAIDYSGGNTYYADSVKGRFTISRDYAKNTVYLQMNSLKTEDTAVYYCNADYAGSFWSREYDYWGQGTQVTVSS | low polyreactivity
QVQLVESGGGLVQAGGSLRLSCASSGGTFSTYAMGWYRQAPGKERELVAAISSTGGSTYYADSVKGRFTISGDNAKNTVYLQMNSLKPEDTAVYYCAAYYSRGWLLYWDEMYFWGQGTQVTVSS | high polyreactivity
QVQLVESGGGLVQAGGSLRLSCAASGRTFRRYTMGWYRQAPGKERELVATISSGGSTYADSVKGRFTISRDNAKNTVYLQMNSLKPEDTAVYYCAARYDVAWYSKRYSWGQGTQVTVSS | high polyreactivity
QVQLVESGGGLVQAGGSLRLICAASGSIFLGYAMGWYRPAPGKERELVAAISTSGGGTYYADSVKGRFTISRDNAKNTVYLQMNSLKPEDTAVYYCNAVSHYKYDWGQGTQVTVSS | low polyreactivity
QVQLVESGGGLVQAGGSLRLSCAASGFTFPVYAMGWYREAPGKERELVAAISTSAGSTYYADSVKGRFSISRDNAKNTVYLQLNSLKPEDTAVYYCNADVAGGYGWKSYHGYDYWGQGTQVTVSS | high polyreactivity
QVQLVESGGGLDQAGGSLRLSCAASGSIFRWYAMGWYRQAPGKEREFVAAITSSGGSTYYADSVKGRFTISRDTAKNTVYLQINSVKPEDTAVYYCNRRYQPYSYDYWGEGTQVTVSS | high polyreactivity
QVQLVESGGGLVQAGGSLRLSCAASGGIFGGYAMGWYRPAPGKEGELVAVITSGGSTYYADSVKGRFTISRDNAKNTVYLQMNSLKPEDTAVYYCAALGQYQTVYSDGYDYYYWGQGTKVTVSS | low polyreactivity
QVQLVESGGGLVQAGGSLRLSCAASGIIFYTYVMGWYRQAPGKEREFVAGISTSGGRTDYADSVKGRFTISRDNAKNTVYLQMNSLKPEDTAVYYCNKLYRYPRYYYWGQGTQVTVSS | high polyreactivity
QVQLVESGGGLVQAGGSLRLSSAASGITFRNYAMGWSRQAPGKERELVAAITRGGRTNYADSVKGRFTISRDNAKNTVYLQMNSLKPEDTAVYYCATGRDSNFGNSYYYWGQGTQVTVSS | high polyreactivity
QVQLVESGGGLVQAGGSLRLSCAASGSTFNIYAMGCYRQSPGKERELVAAIRSGGSTYYADSVKGRFTISRDNAKNTVYLQMNSLKPEDTAVYYCGAAVKRALDYWGQGTQVTVSS | high polyreactivity
QVQLEESGAGLLQAGGSIRLSCAASGRTFWYYTMGWYRQAPGKEREVVAAISSGGRTNYADSVKGRFTISRDNAKNTVYLQMNSLKPEDTAVYDCAALYAKYYYRYDYWGQGTQVTVSS | high polyreactivity
QVQLVESGGGLVQAGGSLRLSCAASGFIFGANTMGWYRQAPGKERELVATISWSGGSTYYADSVKGRFTISRDNAKNTVYLQMNSLKPEDTAVYYCAAPGVTYGFRSDYWGQGTQVTVSS | low polyreactivity
QVQLVESGGGLVQAGGSLRLSCAASGSTFFLYAMGWYRQAPGKERELVAAITYTDGDTYYADSVKGRFTISRDIAKKTVYLQMNSLKPEDTAVYYCAADSWVQFDYWGQGTQVSVSS | low polyreactivity
QVQLVESGGGLVQAGGSLRLSCAASGFTFDYYAMGWYRQAPGKERELVAAISSSGGSTYYADSVKGRFTISRDNAKNTVYLQMNSLKPADTAVYYCGTGHSKKYDYWGQGTQVTVSS | high polyreactivity
QVQLVESGVGLVQAGGRLRLICAASGITFGPNALGWYRQAPGKERELVAAISWRGGSTYNADSVKGRFTISRDNGKNTVYLQMNSLKPEDTAVYYCAADLAYGAMVYWGQGTQVTVSS | low polyreactivity

Sequence | polyreactivity (PSR sort gate)
QVQLVESGGGLVQAGGSLRLSCAASGFTFPFYTMGWYRQAPGKERELVAAITRSGASTFYADSVKGRFTISRDNAKNTVYLQMNSLKPEDTAVYYCAARRGYAPYEYWGQGTQVNVSS | high polyreactivity
QVQLVESGGGLVQAGGSLRLSCAASGSIFPKYAMGWDRQAPGKERELVATITWSGSSTYYADSVKGRFTISRDNAKNTVYLQMNSLKPEDTAVYYCAATGWSSFYYRFDYWGQGTQVTVSS | low polyreactivity
QVQLVESGGGLVQAGGSLRLSCAASGRTLQQYVMGWYRQAPGQERELVAAITRGGRTNYADSVKGRFTISRDNAKNTVYLQMNSLNPEDTAVYYCNTRYPSRLVAWLDYWGQGTQVTVSS | low polyreactivity
QVQLVESGGGLVQAGGSLRLSCAASGFIFGAYAMGWYRQAPGKERELVAAITRSGGNTYYADSVKGRFTISRDNAKNTVYLQMNSLKPEDTAVYYCNVVGVYHYEDYYYWGQGTQVTVSS | high polyreactivity
QVQLVESGGGLVQAGGSLRLSCAASGRTFYGYAMGWYRQAPGKERELVAVITRDGSTNYADSVKGRFTISRDNAKNTVYLQMNSLKPEDTAVYDCAAERLAYRVRWRYNQEDYWGQGTQVTVSS | high polyreactivity
QVQLVESGGGLVQAGGSLRLSCAASGRIFRYNAMGGYRQAPGKERELVAAITWRGGSTYYADSVKGRFTISRDNAKNTVYLQMNSLKPEDTAVYYCNKVDSLTFEYDYWGQGTQVTVSS | high polyreactivity
QVQLVESGGGLVQAGGSLRLSCAASGRIFKSYDIGWYRQAPGKEMELVSAISQSGGGTYYADSVKGRFTISRDNAKNTVYLQMNSLKPEDTAVYYCAAYRRVNRYQKIDNYWGQGTQVTVSS | high polyreactivity
QVKLVESAGGLVQAGCSLRLSCAASGSIFLKNAKGWYRQSPGKERELVAGITTRGSTYYADSVKGRFTISRDNAKNTVYLQMNSLKPEDTAVYYCAKRDVGYQTRYFYWGQGTQVTVSS | high polyreactivity
QVQLVESGGGLVQAGGSLRLSCAASGSIFAAYVMGWYRQAPGKERELVAAISYSGGGTYYADSVKGRFTISRDNAKNTVYLQMNSLKPEDTAVYYCAADFGVFKSARYYYWGQGTQVTVSS | low polyreactivity
QVKLVDSGGGLVQAGGSVGLSCAASGRIFPWYTMGWYRQAPGKERELVAVISSGGRTHYADSVKGRFTISRDNAKNTVYLQMYSLNPEDTAVYDCAAESRYQRYDYWGQGTQVTVSS | high polyreactivity
QVQLVESGGGLVQAGGSLRLSCAASGITFNAYAMGLYRQAPGKERELVAAISRSGGSTYYADSVKGRFTISRDNANNTVYLQMNSLKPEDTAVYYCAVDYRTRGDYWGQGTQVTVSS | high polyreactivity
QVQLVESGGGLVQAGGSLRLSCAASGFIFVTYAMGWYRQAPGKERELVAAITNSGGTTYYADSVKGRFTISRDNAKNTVYLQMNSLKPEDTAVYYCNKPYGAETAHREFDYWGQGTHVTVSS | low polyreactivity
QVQLVESGGGLLQAGGSLRLSCAASGITFTSYVMGWYRQAPGKERELVAAIRWSGGRTYYADSVKGRFTISRDNAKYTVYLQMNSLKPEDTAVYYCNRVTRSHVDYWGQGTQVTVSS | high polyreactivity
QVQLVESGGGLVQAGGSLRLSCAPSGRIFRTNTMGWYRQAPGKERELVAAITRGGSTYYADSVKGRFTISRDNAKNTDYLQMKSLKPEDTAVYYCAASRYYNTVHNGGDYWGQGTQVTVSS | high polyreactivity
QVQLVESGGGLVQAGGILRLSCAASGSIFRQYARGWYRQAPGKERAFVAAITRRGGSTRYADSVKGRFTISRDNAKNTVYLQMNSLKPEDSAVEYCAARGVPGLHRYYYWGQGTQVTVSS | high polyreactivity
QVQLVESGGGLVQAGGSLRLSCAASGRTFRYNRMGWYRQAPGKERELVAAITGGGSTYYADSVKGRFTISRDNAKNTVYLQMNSLKPEDTPVYYCAKRRWYRYDYWGQGTQVTVSS | high polyreactivity

From the nanobody polyreactivity screen of Harvey et al. (2022)
